Values quoted from earlier work, collected in patent publication US20230090114A1, “METHODS FOR PROMOTING WEIGHT LOSS” (89BIO LTD., priority 2020, published 2023).

Conditions: in vivo; cited from earlier work

B1: recombinant human FGF-21: recombinant human FGF-21 (SEQ ID NO: 1 is native human FGF-21) (protein, listed as Homo sapiens)
chain: MHPIPDSSPLLQFGGQVRQRYLYTDDAQQTEAHLEIREDGTVGGAADQSPESLLQLKALKPGVIQILGVKTSRFLCQRPDGALYGSLHFDPEACSFRELLLEDGYNVYQSEAHGLPLHLPGNKSPHRDPAPRGPARFLPLPGLPPALPEPPGILAPQPPDVGSSDPLSMVGPSQGRSPSYAS
half-life: 1 to 2 h
